Holding throughout (conditions): tags: R&D Systems; chain copies: 2
Data set [1] deals with T1, NGF (nerve growth factor) (Homo sapiens, UniProt P01138 P01138:122-241). In words: SPR; inhibits NGF-receptor binding; inhibits neurite outgrowth at 10 nM. On the technique in general: SPR reads the build-up and loss of mass on a sensor chip optically.
In data set [2] the target is T1, NGF (nerve growth factor). In words: SPR; binding maintained on shortening.
The target of data set [3] is T1, NGF (nerve growth factor). In words: cell_activity; TF-1 cell proliferation inhibition. As to the method: (§1) Two NGF receptor (human TrkA and human p75) genes were introduced into TF-1 cells (ATCC Number: CRL-2003), which is a human erythroleukemic cell line, by using a retrovirus vector to give cells that highly express two receptors simultaneously and stably. The cells were suspended in an RPMI-1640 medium containing 20% fetal bovine serum, and seeded in a white 96 well flat-bottom plate at 1000 cells (50 μL) per well. […] With the amount of luminescence per well obtained by the addition of NGF alone and culture of the cells for 3 days as inhibitory activity 0%, and that of the well obtained by NGF free culture for 3 days as inhibitory activity 100%, the inhibitory activity of the aptamer was calculated from the amount of luminescence per well obtained by culturing with the addition of NGF and the aptamer in mixture.

In data set [4] the target is T2, NT-4 (neurotrophin-4) (Homo sapiens, UniProt P34130 P34130:81-210).
T2 sequence: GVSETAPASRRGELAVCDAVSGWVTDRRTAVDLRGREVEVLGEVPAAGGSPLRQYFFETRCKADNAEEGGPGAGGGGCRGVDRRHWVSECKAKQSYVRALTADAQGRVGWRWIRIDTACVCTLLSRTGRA
In words: cell_activity; TF-1 TrkB cells. The text has this: Using TF-1 cells, whether NGF aptamer inhibits BDNF, NT-3, NT-4 was examined. Human receptor genes (TrkB, TrkC, p75) for respective neurotrophic factors were introduced into TF-1 cells (ATCC Number: CRL-2003), which is a human erythroleukemic cell line, by using a retrovirus vector to give cells that highly express these receptors stably. TF-1 cells introduced with TrkB and p75 were used for the evaluation of inhibitory activity against BDNF, TF-1 cells introduced with TrkC and p75 were used for the evaluation against NT-3, and TF-1 cells introduced with TrkB alone were used for the evaluation against NT-4. These cells were suspended in an RPMI-1640 medium containing 20% fetal bovine serum, and seeded in a white 96 well flat-bottom plate at 1000 cells (50 μL) per well. Thereto was added a mixed solution 50 μL of human BDNF (final concentration 0.074 nM) or NT-3 (final concentration 0.074 nM) or NT-4 (final concentration 0.071 nM) and the aptamer (final concentration 1 μM-0.01 nM), which had been pre-reacted at room temperature for 30 min in a serum-free RPMI-1640 medium, 3 days later, 100 μL of CellTiter-Glo reagent for CellTiter-Glo Luminescent Cell Viability Assay (manufactured by Promega) was added to each well, chemiluminescence was measured by a microplate reader. With the amount of luminescence per well obtained by the addition of BDNF or NT-3 or NT-4 alone and culture of the cells for 3 days as inhibitory activity 0%, and that of the well obtained by culture for 3 days without addition of BDNF or NT-3 or NT-4 as inhibitory activity 100%, the inhibitory activity of the aptamer was calculated from the amount of luminescence per well obtained by culturing with the addition of BDNF or NT-3 or NT-4 and the aptamer in mixture. […] The 50% inhibitory concentration (IC₅₀) was determined from the concentrations at two, above and below points sandwiching the 50% inhibitory activity. An IC₅₀ value indicated as “>X” means that the inhibitory activity was not more than 50% when the indicated concentration X was the maximum measured concentration. N.D. means not measured.

Data set [5] has as its target T1, NGF (nerve growth factor). In words: cell_activity; neurite outgrowth inhibition. The protocol: The cells (2500 cells per well) were cultured for one day in an RPMI-1640 medium containing 2.5% horse serum and 1.25% fetal bovine serum in a 96 well flat-bottom plate coated with collagen type IV. […] Two days later, the cytoplasm and nuclei were stained using Cellomics Neurite Outgrowth Kit (manufactured by Thermo Scientific), and neurite length per cell was measured by Cellomics ArrayScan VTI (manufactured by Thermo Scientific). With the neurite length per cell obtained by the addition of NGF alone as inhibitory activity 0%, and that of the cell obtained by NGF free culture for 2 days as inhibitory activity 100%, the inhibitory activity of the aptamer was calculated from the neurite length per cell obtained by culturing with the addition of NGF and the aptamer in mixture.

In data set [6] the target is T3, NT-3 (neurotrophin-3) (Homo sapiens, UniProt P20783 P20783:139-257).
T3 sequence: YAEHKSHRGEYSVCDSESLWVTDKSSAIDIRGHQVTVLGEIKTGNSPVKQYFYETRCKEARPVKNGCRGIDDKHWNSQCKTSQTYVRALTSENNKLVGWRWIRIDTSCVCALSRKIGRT
In words: cell_activity; TF-1 TrkC/p75 cells. The text has this: (§2) Using TF-1 cells, whether NGF aptamer inhibits BDNF, NT-3, NT-4 was examined. Human receptor genes (TrkB, TrkC, p75) for respective neurotrophic factors were introduced into TF-1 cells (ATCC Number: CRL-2003), which is a human erythroleukemic cell line, by using a retrovirus vector to give cells that highly express these receptors stably. TF-1 cells introduced with TrkB and p75 were used for the evaluation of inhibitory activity against BDNF, TF-1 cells introduced with TrkC and p75 were used for the evaluation against NT-3, and TF-1 cells introduced with TrkB alone were used for the evaluation against NT-4. These cells were suspended in an RPMI-1640 medium containing 20% fetal bovine serum, and seeded in a white 96 well flat-bottom plate at 1000 cells (50 μL) per well. Thereto was added a mixed solution 50 μL of human BDNF (final concentration 0.074 nM) or NT-3 (final concentration 0.074 nM) or NT-4 (final concentration 0.071 nM) and the aptamer (final concentration 1 μM-0.01 nM), which had been pre-reacted at room temperature for 30 min in a serum-free RPMI-1640 medium, 3 days later, 100 μL of CellTiter-Glo reagent for CellTiter-Glo Luminescent Cell Viability Assay (manufactured by Promega) was added to each well, chemiluminescence was measured by a microplate reader. With the amount of luminescence per well obtained by the addition of BDNF or NT-3 or NT-4 alone and culture of the cells for 3 days as inhibitory activity 0%, and that of the well obtained by culture for 3 days without addition of BDNF or NT-3 or NT-4 as inhibitory activity 100%, the inhibitory activity of the aptamer was calculated from the amount of luminescence per well obtained by culturing with the addition of BDNF or NT-3 or NT-4 and the aptamer in mixture. When the inhibitory activity was 0 or below, ‘0%’ is indicated. The 50% inhibitory concentration (IC₅₀) was determined from the concentrations at two, above and below points sandwiching the 50% inhibitory activity. An IC₅₀ value indicated as “>X” means that the inhibitory activity was not more than 50% when the indicated concentration X was the maximum measured concentration. N.D. means not measured.

Data set [7] deals with T3, NT-3 (neurotrophin-3). In words: cell_activity; TF-1.
From the text: as §2

For data set [8], the target named is T2, NT-4 (neurotrophin-4). In words: cell_activity; TF-1.
From the text: as §2

Data set [9] deals with T1, NGF (nerve growth factor). In words: cell_activity; neurite; TF-1 0.021.
In data set [10] the target is T1, NGF (nerve growth factor). In words: cell_activity; neurite; TF-1 0.037.
The target in data set [11] is T1, NGF (nerve growth factor). In words: cell_activity; neurite; TF-1 0.085.
Data set [12] concerns the target T1, NGF (nerve growth factor). In words: cell_activity; neurite; TF-1 0.084. The protocol: With the neurite length per cell obtained by the addition of NGF alone as inhibitory activity 0%, and that of the cell obtained by NGF free culture for 2 days as inhibitory activity 100%, the inhibitory activity of the aptamer was calculated from the neurite length per cell obtained by culturing with the addition of NGF and the aptamer in mixture.
as §1

The target in data set [13] is T1, NGF (nerve growth factor). In words: cell_activity; neurite; TF-1 0.022.
The target of data set [14] is T1, NGF (nerve growth factor). In words: cell_activity; neurite; TF-1 <0.03.

Changes are numbered by the printed parent chain.

Usually IC50 stands for the midpoint of a concentration-inhibition curve.

T1 sequence (P01138 122-241, one chain of several): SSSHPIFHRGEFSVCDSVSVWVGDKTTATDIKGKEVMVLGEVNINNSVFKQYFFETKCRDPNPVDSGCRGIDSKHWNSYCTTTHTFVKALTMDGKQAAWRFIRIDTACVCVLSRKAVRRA

B1: SEQ ID NO: 6 (ssRNA)
RNA: GGGAGAACUUCGACCAGAAGUGCAAUACUUUCGCGGCAUAUGUGCAAACCUUGCCACGACUAUGUGCGCAUACAUGGAUCCUC
modifications: 2'-F C and U; 2'-OH G; 2'-H (deoxy) A
Take B1: the binding result in [1] was “binds”.

B2: SEQ ID NO: 92 (ssRNA)
RNA: GGGUCCUGACCAAGAGUUUCCGUCUCGUGGUCUGUACCC
modifications: 2'-F C and U; 2'-OH G; 2'-H (deoxy) A
Turning to B2, the binding result in [2] is given as “binds”.

B3: SEQ ID NO: 82(25) (ssRNA)
RNA: GGGUCCUGGAUAAGAGUUUCCGUCUCGUAUCCUGUUACCC
modifications: 2'-F C5,U7,U17,U18,U19,C20,C24,U25,U33,U36; 2'-OH G8,G34; 2'-H A; 2'-OMe all other; idT 5' and 3'
B3: the IC50 in [3] is 85 pM; in data set [4] it was 40400 pM; in [5], less than 100 pM; in data set [6], 2150 pM.

B4: SEQ ID NO: 78(4) (printed 76(4) in sequence list) (ssRNA)
RNA: B3 RNA with A10C, U11C, A29G, U30G, C31U
modifications: 2'-OMe G (G8,G34 2'-OH), dA, 2'-F C/U except 2'-OMe U4,C6,C10,C11,C21,U23,C26,U28,U31,C32,U35,C38-40; 5',3' idT
B4: the results for the IC50 in [7], in [8] and in data set [9] were 3000 pM, less than 100000 pM and 37 pM, respectively.

B5: SEQ ID NO: 166 (ssRNA)
RNA: B3 RNA with U17T, U33T
modifications: as 82(48) except dT17,dT33,dU36
Turning to B5, the IC50 in [10] worked out at 113 pM.

B6: SEQ ID NO: 82(21) (ssRNA)
RNA: B3 RNA
modifications: as 82(1) except 2'-OMe U4,C6,U11,C21,U23,U28,U30,C32,U35,C38-40
Consider B6, for which the IC50 is less than 30000 pM in data set [7] and less than 100 pM in [11].

B7: SEQ ID NO: 82(24) (ssRNA)
RNA: B3 RNA
modifications: as 82(1) except 2'-OMe U4,C6,U11,C21,U23,U28,U30,C31,C32,U35,C38-40
As to B7, the values for the half-inhibitory concentration (IC50) in data set [7] and in data set [12] were less than 30000 pM and less than 100 pM, respectively.

B8: SEQ ID NO: 90 (ssRNA)
RNA: B3 RNA with G9C, A10G, C31G
modifications: 2'-F C and U; 2'-OH G; 2'-H (deoxy) A
As to B8, in [2], the binding result is reported as “binds”.

B9: SEQ ID NO: 82(46) (ssRNA)
RNA: B3 RNA
modifications: as 82(25) except 2'-OMe A29
In [13], B9 registered an IC50 of 33 pM.

B10: SEQ ID NO: 91 (ssRNA)
RNA: B3 RNA with G9C, A10C, U30G, C31G
modifications: 2'-F C and U; 2'-OH G; 2'-H (deoxy) A
As for B10, the binding result in data set [2] is “binds”.

B11: SEQ ID NO: 79(1) (ssRNA)
RNA: B3 RNA with A10U, U30A
modifications: 2'-OMe G (G8,G34 2'-OH), dA, 2'-F C/U; 5',3' idT
Molecule B11 showed a concentration for half-maximal inhibition (IC50) in data set [14] of 289 pM.

B12: SEQ ID NO: 167 (ssRNA)
RNA: B3 RNA with U17T, U33T
modifications: as 82(48) except dT17,dT33
B12 returned a half-inhibitory concentration (IC50) in [10] of 128 pM.

The values above are taken from patent US20140235701, “NGF APTAMER AND APPLICATION THEREOF” (RIBOMIC INC., published 2014).
